This note sets out measurements from a protein production outcome set (Wang et al. 2014).

The data set is described as follows: label from the status in PepcDB records.
On to “MHERTGLWRGITAVGALLLAVAIMAGTIMETYRTSLDAFVGTRSQRTVTDQSADNGDSWTYKSEYKTAKEAYEGFKKTAMDEAQETYVLLKNSDNALPLSKSAKITMFGVRSYAPVYGSSGGSVTDGNSTVEITKAFEEEGFQINPSMLKAYQNYFKDKKWTTPQFGGGILPEYEDITKYNDPCELSLDELAKLNPEYKSQYGEYQDAAIVVVGRPAGENGDGYYPGQDGLADGVNTVTGNILSLSDEEMALVNEAKANFSKVIVLVNSTNPMEIANLQDDPDIDAIMWIGYPGAYGFYGVADVLNGTVSPSAHLGDVMAKNSAVAPAMSNYGNVAWKNASDFSEDAAVNSYLMEAEGIYTGYRYYETRYADIVMGNGGDTASAGTYAASDGTVATADGTWDYANEVVYPFGYGLSYTTFEQKLDGVEIKGDKKTAVATVTVKNTGSVEGKSVIQLYASVPYTDYDKKNGVGKSAIQLMDFEKTNALKPGDSQTITMTVDLSNLASYDSNKAKTYIVDPGDYYFSIGDDVHDALNNVLAAQGYSESDGMTAAGDKTKTYTWSWDGGVDADTFATSSTGTKITNQLSDGKYATDYNAFDKGAVTYLTRSDWNGTFPKTYSGISANEEVSKLLNNDFIDLKSDGDVSDITIGDTSSSLTLNDMKGASYDDERWDELTSKVSVKEFMHFAETAFHAIGAIDSVGLQEMTTDDGPGGSDSHYLNEGQYQGKAYADADDYADKSSRVAPSPTNLAYSWNKELAYRNGEVILGESSLVFRLPIMIAPAMNLHRHAYNSRGVEYYSEDPILSGYIGSAVVQGAQSKGVLVNVKHLAFNDQEINRSGIATFMSEQKAREMELRNFQQAFEANGKPASFESDDAKKNTYTQGALGVMTSYNRIGAVASSANAAVMVNILRDEWGFTGYNVTDFTSVSPHAAPKESVLAGTSAFCGFGNQGVKYWDAATLSKDRDMLLAIKQNMHYSLWAIANSNAMNGVNSSTHTENVMTWWRAVYLGVIAASGVVTLIGLAGYTTTRIRPARNADNGPTAASK”, for which the protein production entry was “failed”.
On to “MHFRLSFISIIYRLLGILLASAFVGWLFDYVLLVMLATSIFLLVWHYHHLFKLINWIWQSKALSPPQAKGVWGYLYDGLYRQVKQQRNKQKQLNEKIRRFRDGAEALPDAALMLSEELTIEWGNKKAQRLLGVRWPDDFGQRIDNLLRAPEFSDYLAHENFEYPCLLVSPIHSDVQLEIRLMAYGSEHVLLLARDISNLQRLEDMRRDFVANVSHELKTPLTVVRGYVEMIQASPEAFDPHWQKAFQTIEGQVSRMDRLVEQLLNLAKVENNSDDEKQCVNMAQLIRTLVDEVTWLNQEKQHQIMLDISTDVSVLGFETELKSACANLLSNAIAYTPPKGCIEVSWRLMGNKAIFSVKDNGDGIKPEHVNRLTERFYRIDRSRSRDTGGSGLGLAIVKHVLHHHQAELIINSHWGQGSEFSIYFDPSTLSNPSR”, for which the protein production result is reported as “failed”.
Consider “MHGTRRTRKDSPCMPAIHRAPLLRRREFRHEDRNGSLAPALDLIAWSRSAFGWLAHQPYLLLSLTSLFWAGNIVLGRAVAGHVPPVTLSCARWVGAMLLLLPFAWPHLRHDWRKLRAQWKLMIVLSATGFAINNALSYWGLQYTQALNALLMQSSGPLFVALWSLLLFGVRLTWMQATGIALSLLGVLTIILRGDFAALAGIELNRGDLMVAGALCAFGLYSALMPKRPATHPLSLIVVTTGCGALLLLPFSAWEYASGVRPSADWISVATLAYVVIFPSMLAYLCFNRGVALIGPNRSAPFLHLMPVFGSVMAIVLLGEKPELFHLAGYAMVVAGVFIAARR”, for which the protein production result is “failed”.
Then “MHIAILGCTSQIAKDLIRSIYVYSQHDLILFGRTPQQTQSWLAENGITSRCSVNQYEEYPNIDHDVVINFVGIGDPSKAAAMGGSIFDITLHYDELVLNELKKYPDRRYLFLSSGAAYGSSFLEPADADTPSTININNLLPQEYYSVAKLHAECRHRSLKEYAIVDLRVFNVFSRTQDLEARFFITDIVRSIHSGTELITSSDMIYRDFMHPKDFYQLVERVLNAPPMNISLDCYSRQPVDKTTLLDEMKKTFGLSYRVKESNMSINATGIKPCYYSKNKRAAEFGYLPEYSSLETIIEETNAILGLQKTVLEHHHHHH”, with “not failed”; and “MHILYFLFPKVTFNSFSTPIFFTLISFYSLVTFFPLLSLFIRTSIPSNLINMIIQNSIKGVFVHLDVKMRFFLDFYFLNSLICYSNYIVPFLLAHTLNLITPSVLTTVECDF”, with “failed”.
Then “MHISFIIPAFNEEQLIEPCLRSITDAVAANRSYGYTSEIIVVDNNSTDATAQLAKQAGAQVVFEPVNHIARARTAGAGAARGDWLVFMDADCLLNAGLVGDIFELIRQGRHIGAGSTLYMPGQPWWAEMLLRIWTFLSVQLGWAAGALIVCNAAAFREVGGFDLTLYAAEEIDLSQKLKKYGRKRKLKFAILNAHPLETSSRKTQLYSGWEIVGQFLRLVLSPLGTLRNKKKLPMWYDGRRLEHHHHHH”, with “not failed”; and “MHKDELLELHEQMVTIMEYFRDDMDSVDPDLFDAYQELDVRPSDVHKSKSEHKHAVFVLGNSLATAMSEDEFSDAGRVSKRMKELAEDAERKLLEHHHHHH”, with “not failed”; and “MHKKTVILIIFAILGGVMGAAYFTRAWLVMGITSRLVNNIIVNILLGAIIFLILGSLFAGVLVRLINRIEAYLNRQNPMTLIFGSLLTIVGLALALLISQFLFRVPSFFIGTVIPWILMILFGYFGYRIGARLSKIRLEEWRKLFQSRSKKAEEETDKQVLDKETEPNFHHYKILDTNILIDGRIYDLAKTGFLEGTLLVPNFVLYELQYIADSSDSVKRVRGRRGLDILNKLQNEHIMPIEMYEGDFEDIPEVDSKLIALAKQNGGVIVTNDYNLNKVIQFQNVQVLNINSLANALKPRVIPGENLHVMVVKNGTERQQGVAYLDDGTMVVVEDGRYFINKQLDVVVTSAIQTDAGRMIFAKPLHSNKNIEEQANAGKEGKGSNSAKPTKRSR”, with “failed”.
Then “MHLATLASGSSGNSIVVGHEKRNFLVDCGISLKATLHNLAILDIAPSEIEGIFITHEHSDHIKGVGAVARKLKIPIYASAKIWDELNPSIGKLKDEQRVVVKDAFTCAGLRVRVFPTSHDSQESFGVRVEVEQPVKGRSRAIGIATDTGIVTEEMHQALKGCDALVVEANHDREMLWQGGYPWYLKKRISGNYGHLENSQLAEGLLQWIEGNTQRIVLAHLSDENNTPETALSTILRILKESRVAKENRDLRLRVAPRYTPHELIVLEEY”, with “failed”.
As for “MHLKEILAQFSFFTAIPVKSSASLEEIAESSYISPIIVGISLGLIESVAYLILYRILGELTGIVLLGIIELLRGFNHLDGLLDLGDALMIRGNREKKIKALKDVEVGSGGIGLLLVYLSIQIVALLKLDFSLYTIFYLISSNVLSMSLSLYILSTISPIPESNLGRIFHDKLKGKSTILLLELIPFISLYNVIVFIIFYMIMYKICGSLGGSSGDIAGASITLSFPLFLITDEITNLNYSLLSILCYLFSHLH”, the protein production entry is on record as “failed”.
For the sequence “MHLPPKLALTTGVLLVALPLATPAWGQPPTPASPLVQQLNNGNWLDPKEAETLRDELYYQRAIHAYMTMLPALNVIGMRDGSEKVFGAGYNVLPVWKERMDARTMVPTPNADVIYSMSYLDLKKTGPLVVKAPANVIGMFTDFFQRTLTDVGAIGPDRARGGLYLILPPDYDGHVPSSYFVVKSPTYNVFLFFRTIMGQGKGKPDPAPAVKAAETTRVYPLWAEEKDIKPMEFPDGSGKHINMMYPVDQEYWTKLKEFVDYEPVSAIDPELRGVLASIGIVKGQPFKPTAREQELLKRAVETAPKMILAMRQLGREDKRHLYYKDRQWERAWAGATAEWMQDSYLDVNQRATFFQIAYSSAPAMVMRTTGAGSKYPFTARDANGEFLNGSATYKLRMPPDAPAALFWAVTAYNVTDGTMPETDQLMPSTNGYYDIPKQKDGSTEIWFGPQKPADVADAAFIKTIPNRNFLVTLRLYGAEDAFYDQTWKPDDVVKVKLEHHHHHH”, the protein production entry is given as “not failed”.
As for “MHLWWRYHLATIIILFAMILTIYFLVPPLFYIEIIGVIFILFLWYIISPGILLRVIKSKKVENEDVLRKFEYALALVQMKKIKLHEINSSKPNAFVLGNFLSYNVIVTRGLLESLNDRELISVLLHELHHIKNRDIEIQLIYVLIVNTFYIYIANYNPLLGLSELVIGVVLLFPVHRLLEKNADIKACRTTNWIPLNLANALVKIGYLSRFLPHEIIRDYSEVDLTLAKETILRDDKKGFIFSTHPALSERLKYISKFIKTL”, the protein production result is given as “failed”.
Consider “MHNDFNLLILSGPSGAGKSTLTKYLQEKIPKTHFSLSTTTRKPREGEVDGLHYNFVSEEEFKQGIEKGQFLEWAIVHNHYYGTSKIPVEKALKEGKIVIFDIDVQGHEILKKHYPNACSVFISTKNQEILKERLLLRGTDSKETIEKRLINAYKEMQCLESFDYLIINEDLEKSKEIILSIAKTLVHRLKAFNFEKICKAWKNETL”, for which the protein production entry is on record as “failed”.
To “MHPSLKYMRKDRLPHIFCSGCGNGIVLNCFTNALDKLALKNEDYIAISGIGCSSRVPGYLFCDSLHTTHGRPIAFALGTKVIQNDKKVVVFTGDGDLSAIGGNHFIHGCRRNIDITVICINNNIYGMTGGQCSPTTPHEKKATTAPYGNPENPLDLCELAKAAGATYVARWTTANPIQLANSIKKGMDKKGFSFIEVVSQCPTYYGRFNVSRKPSEMMKNLKESAITVRKAESMEKEELLNKIVVGEFLNIEKPEYVEQLKKLQE” belongs “failed”; to “MHQLWTYDPAAGTVEVGAGTTNEGLVDGPGEEAWFAQPSGLAATADRLWLADSETSALRWVDLDGAVHTAVGTGLFDFGHRDGDAEQALLQHPLGVTALPDGSVAVSDTYNHALRRYDPATGEVTTLATDLREPSDAVLVGDDIVVVESARHRLTRLRLPEEAVRVASVAHRTQRAATEVAPGRLQLDVIFQAPAGQKLDTRYGPSTRLLVSSTPPELLLNGEGADPDLSRTLELNPAIPEGVLHVSAMAASCDDDPANEYPACHVHQQDWGVPVRLTEGGADRLPLVLAGMDALEHHHHHH”, “failed”; to “MHQQTLWLFSGIALVLIIATLISETLRWRARERPSAVLDNLVARIRAWWVMAAVVGLAFVFGRAGVIGLFALVSLFALREFITLTPTRRGDYYALLAAFYVVLPWQYGLVWTGWYGLYTLLIPVYAFLVLPILATIGGDTTRYLERTAKVQWGLMICVFCISHVPALLNLDIPGYAGRNLLLIAFLVIVVQSSDVLQYVWGKLAGRHLIAPKLSPSKTVEGFIGGVVSASLLGMALWWITPFAPWHAFGLALVANLMGFFGGLVMSAIKRDRGIKDWGHMIEGHGGVLDRLDSVCFAAPVFFHLIRYGWA”, “failed”.
For “MHRFLSGPLSVEQLTVNIAGLSASLQGKKLVHLSDFHYDGLRLSEEMLAEAIAVSNQVQPDLVLLTGDYVTTTPQPIHQLAKRLQKLQSHAGIYAILGNHDLYQKNSKTEITQALTKAGIQVLWNEIAYPLGEELPIVGIVDYYYREFNPQLLFNQLEPTTPRIVLCHNPDTAAMLQGWRVDLQLSGHTHGGQIVIPGLGAVLPYHKKIVRRVPIKIRRLFPLFFKDYFIVRHAEWLQGLHRIGKNQLYVNRGLGTYLPGRLFCPPELTVITLEAE”, the protein production result is on record as “failed”.
To “MHRLRNLREDVSDGSLGHGGGGLMYDVVVVGAGPAGSMAAKTAAEQGLKVLLVEKRQEIGTPVRCAEGISRESIEKFFEVDKKWIAAEVTGAKIYAPNKTEIVMSEEMAGNEVGYVLERKIFDRHVARLAAKAGAEVYVKTAMVDFERKDGKVKVKLRRLGEDWEVETKILIGADGVESKIGRKAGIIKTLKLNEVESCAQYLMTGLDIDESYTYFYLGRELAPGGYAWIFPKGNGSANVGIGVLPKMAERTAKEYLDAFIEKEGIEGKIVEFVAGAVPVYGEIETAVADNIMLAGDAAYHADPITGGGIANALSAGYYAGKVAAEAVQKNDFSADFLRRYDELWKNDFGKKLRRNKKLQLKFIDMDDALLNKLAGAIAGKNLREMSVAAIVKELLKAHPKLLWDLKDLFLEHHHHHH” belongs “not failed”.
